Data from patent US20020098193A1.

Tests used:
[1] = target: recombinant soluble mouse FcRn (mouse) (UniProt Q61559); assay: inhibition of 125I-sFcRn binding to murine IgG1-Sepharose; molar ratio of inhibitor/FcRn given as 1/1000
[2] = target: T1, FcRn of neonatal mouse intestine (mouse) (UniProt Q61559); assay: cell-based or functional assay
T1 sequence (looked up): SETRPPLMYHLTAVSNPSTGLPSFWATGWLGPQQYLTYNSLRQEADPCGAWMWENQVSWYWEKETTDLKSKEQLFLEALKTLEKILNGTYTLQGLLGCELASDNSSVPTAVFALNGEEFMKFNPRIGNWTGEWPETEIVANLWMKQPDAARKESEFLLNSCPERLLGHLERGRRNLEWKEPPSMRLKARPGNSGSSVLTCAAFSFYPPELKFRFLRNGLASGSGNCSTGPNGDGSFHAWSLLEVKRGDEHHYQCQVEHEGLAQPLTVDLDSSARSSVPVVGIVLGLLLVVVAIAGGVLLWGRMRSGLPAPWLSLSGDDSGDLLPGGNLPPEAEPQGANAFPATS
T1 sequence (b2m, looked up): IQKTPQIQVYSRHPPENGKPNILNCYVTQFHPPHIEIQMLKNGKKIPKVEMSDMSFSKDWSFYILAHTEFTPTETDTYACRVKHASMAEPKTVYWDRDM

[3] = target: recombinant soluble mouse FcRn (mouse) (UniProt Q61559); assay: inhibition of 125I-sFcRn binding to murine IgG1-Sepharose; molar ratio of inhibitor/FcRn given as 1/500

B1: complete murine IgG1 molecule (antibody, part only; not given: variable domains and Fab arms, not shown: another chain or arm of the molecule)
Fc: VPRDCGCKPCICTVPEVSSVFIFPPKPKDVLTITLTPKVTCVVVDISKDDPEVQFSWFVDDVEVHTAQTQPREEQFNSTFRSVSELPIMHQDWLNGKEFKCRVNSAAFPAPIEKTISKTKGRPKAPQVYTIPPPKEQMAKDKVSLTCMITDFFPEDITVEWQWNGQPAENYKNTQPIMNTNGSYFVYSKLNVQKSNWEAGNTFTCSVLHEGLHNHHTEKSLSHSPGK
modifications: Glycosylated whole IgG1 from hybridoma or mammalian cells; used free, 125I-labelled or coupled to Sepharose. Two heavy chains are joined at the hinge.
% inhibition [1]: 45.6% | Inhibition of transmission (%) of radiolabeled mIgG1 across the intestine of neonatal mice [2]: 51.4% | % inhibition [3]: 24.7%
